Laboratory results: publication PMC4745115

Substrate: C[N+](C)(C)CCO
Test: SSM-based electrophysiology, peak currents, proteoliposomes
Format: biochemical, Corynebacterium glutamicum
Conditions: 500 mM NaCl, 250 mM KPi pH 7.5, 22 °C

B1: BetP (Corynebacterium glutamicum ATCC 13032; G153D) (protein)
chain: MTTSDPNPKPIVEDAQPEQITATEELAGLLENPTNLEGKLADAEEEIILEGEDTQASLNWSVIVPALVIVLATVVWGIGFKDSFTNFASSALSAVVDNLGWAFILFGTVFVFFIVVIAASKFGTIRLGRIDEAPEFRTVSWISMMFAAGMGIDLMFYGTTEPLTFYRNGVPGHDEHNVGVAMSTTMFHWTLHPWAIYAIVGLAIAYSTFRVGRKQLLSSAFVPLIGEKGAEGWLGKLIDILAIIATVFGTACSLGLGALQIGAGLSAANIIEDPSDWTIVGIVSVLTLAFIFSAISGVGKGIQYLSNANMVLAALLAIFVFVVGPTVSILNLLPGSIGNYLSNFFQMAGRTAMSADGTAGEWLGSWTIFYWAWWISWSPFVGMFLARISRGRSIREFILGVLLVPAGVSTVWFSIFGGTAIVFEQNGESIWGDGAAEEQLFGLLHALPGGQIMGIIAMILLGTFFITSADSASTVMGTMSQHGQLEANKWVTAAWGVATAAIGLTLLLSGGDNALSNLQNVTIVAATPFLFVVIGLMFALVKDLSNDVIYLEYREQQRFNARLARERRVHNEHRKRELAAKRRRERKASGAGKRR
Km: 135 ± 28 µM
